Assay results as given in PMC8854392 (2022).
Positions count from the first letter of the chain named.

B1: Cy.009, chimeric anti-CyRPA monoclonal antibody (chicken variable domains, human IgG1) (antibody, V domains shown)
VH: AVTLDESGGGLQTPGGALSLVCKASGFTFSDYAMGWVRQAPGKGLEYVAGIKSDGSFTLYGSTVKGRATISRDNGQSIVRLQLNNLRAEDTGTYYCAKSDDNGGHYSDFSGEIDAWGHGTEVIVSS
VL: RCALTQPSSVSANPGETVKITCSGSSYSYGWYQQKSPGSAPVTVIYYNDKRPSDIPSRFSGSKSGSTGTLTITGVQAEDEAVYFCGNSDSRNAAFGAGTTLTVL
B2: Cy.004, chimeric anti-CyRPA monoclonal antibody (chicken variable domains, human IgG1) (antibody, V domains shown)
VH: AVTLDESGGGLQTPGGALSLVCKASGFDFSSYAMGWVRQAPGKGLEYVAGIRNDGSFTLYTPAVKGRATISRDNGQSTVRLQLNNLRAEDTATYFCTKSADDGGHYSDFSGEIDAWGHGTEVIVSS
VL: B1 VL with S26T, S28N, F84Y, A93V
B3: Cy.003, chimeric anti-CyRPA monoclonal antibody (chicken variable domains, human IgG1) (antibody, V domains shown)
VH: AVTLDESGGGLQTPGGALSLVCKGSGFFSFSSYTMQWVRQAPGKGLEWVASISSGGGTNYGAAVKGRATISRDNGQSTLRLQLNNLRAEDTGTYYCAKHGVNGCDWSYSVGCVDAWGHGTEVIVSS
VL: RCALTQPSSVSANPGETVKITCSGGSSSYYGWYQQKSPGSAPVTLIYNNQKRPSDIPSRFSGSKSGSTGTLTITGVQAEDEAVYFCGSRDNSGGIFGAGTTLTVL
B4: Cy.007, chimeric anti-CyRPA monoclonal antibody (chicken variable domains, human IgG1) (antibody, V domains shown)
VH: AVTLDESGGGLQTPGGTLSLVCKGSGFTFSSYEMQWVRQAPGKGLEWVADICIGGSYTGYGPAVKGRATISRDDGQSTVRLQLNNLRAEDTGTYYCAKTARSDYCITGLDDIDAWGHGTEVIVSS
VL: RCALTQPSSVSANPGETVKITCSGGSSDYGWYQQKSPGSAPVTVIYENNKRPSDIPSRFSGSKFGSTHTLTITGVQADDEAVYFCGSRDTNNGAFGAGTTLTVL

Columns and labels:
[1] = molecular target: T1, Cy.002 Fab:CyRPA complex, formed beforehand and purified by SEC (Plasmodium falciparum (3D7 clone) | …, UniProt Q8IFM8 29-362); test: SPR; PBS+P20
[2] = molecular target: Cy.007 Fab:CyRPA complex, formed beforehand and purified by SEC (Plasmodium falciparum (3D7 clone) | …, UniProt Q8IFM8 29-362); test: SPR; PBS+P20
[3] = molecular target: Cy.003 Fab:CyRPA complex, formed beforehand and purified by SEC (Plasmodium falciparum (3D7 clone) | …, UniProt Q8IFM8 29-362); test: SPR; PBS+P20
[4] = molecular target: T1, Cy.002 Fab:CyRPA complex, formed …; test: SPR; TBS+P20, 1 mM CaCl2
[5] = molecular target: Cy.009 Fab:CyRPA complex, formed beforehand and purified by SEC (Plasmodium falciparum (3D7 clone) | …, UniProt Q8IFM8 29-362); test: SPR; TBS+P20, 1 mM CaCl2
[6] = molecular target: Cy.004 Fab:CyRPA complex, formed beforehand and purified by SEC (Plasmodium falciparum (3D7 clone) | …, UniProt Q8IFM8 29-362); test: SPR; TBS+P20, 1 mM CaCl2

Binder	Kd [1]	koff [1]	Kd [2]	Kd [3]	Kd [4]	koff [4]	Kd [5]	Kd [6]
B1	1500 nM	0.17 s⁻¹	2100 nM	260 nM	–	–	–	–
B2	1800 nM	0.39 s⁻¹	390 nM	410 nM	–	–	–	–
B3	–	–	–	–	77 nM	0.0048 s⁻¹	8.6 nM	13 nM
B4	–	–	–	–	11 nM	0.0024 s⁻¹	2.6 nM	1.6 nM
